For assay [1], the system named is pentapeptide-bearing Tar4E and Tar4Q. Nature of the assay: CheB binding to pentapeptide-bearing Tar, 4E and 4Q (biolayer interferometry). Set-up: species or system E. coli. The following applies: Tar4E versus Tar4Q. Here is the method: (§1) We determined the kinetics of association and dissociation of methylesterase/deamidase CheB in its low- and high-activity form with the E. coli aspartate chemoreceptor Tar using biolayer interferometry ([22], [23]) and isolated receptor homodimers in Nanodiscs ([24], [25]). Apparent rate constants of association and dissociation were derived from global fits of time courses for binding and release (see Fig. S1 in the supplemental material). Equilibrium dissociation constants were calculated from those apparent rate constants.
E. coli CheB and Salmonella CheB D56C/C207S/C309S and D56C/S164A/C207S/C309S were purified as described previously ([11]). CheBC (amino acids [aa] 153 to 349) was purified using the procedure of West et al. ([40]), except that Bio-Gel P-60, was not used. […] The extent of modification was 59% for the former and 60% for the latter determined by reversed phase chromatography essentially as described previously ([26]) and confirmed by Nano LC-Nanospray QTQF mass spectroscopy. […]
(§2) Kinetics of CheB association and dissociation with Nanodisc-embedded Tar biotinylated at L378C were determined using biolayer interferometry ([22], [23]) as measured by a BLItz instrument (ForteBio, Menlo Park, CA, USA) and described in reference. […]
A general note: In BLI a coated tip is dipped into the sample, and binding shifts an interference pattern.

For the next assay, the target named is TarQEQE. The following applies: pulldown assay, pentapeptide at carboxyl terminus of TarQEQE in native membrane, unphosphorylated CheB; ref [21]; read-out: equilibrium dissociation constant [KD]; cited from earlier work.
The target in assay [2] is T1, Tar4EΔpp-6H L378C, E. coli Tar lacking the carboxyl-terminal pentapeptide, all-glutamyl form, homodimer in … (E. coli, UniProt P07017 1-553, L378C, biotinylated at L378C). As to the kind of experiment: SPR. (In general: In SPR one partner is held on a chip, and binding of the other changes the refractive index at the surface.)
The target of assay [3] is T2, Tar4E L378C, E. coli aspartate chemoreceptor Tar, all-glutamyl form with carboxyl-terminal pentapeptide, … (E. coli, UniProt P07017 1-553, L378C, biotinylated at L378C). As to the kind of experiment: SPR.
For assay [4], the target named is T3, Tar4Q L378C, E. coli aspartate chemoreceptor Tar, all-glutaminyl form with carboxyl-terminal pentapeptide, … (E. coli, UniProt P07017 1-553, L378C, biotinylated at L378C). As to the kind of experiment: SPR.
The target of assay [5] is Tar4QΔpp-6H L378C, E. coli Tar lacking the carboxyl-terminal pentapeptide, all-glutaminyl form, homodimer in … (E. coli, UniProt P07017 1-553, L378C, biotinylated at L378C). Nature of the assay: SPR.
The target in assay [6] is T1, Tar4EΔpp-6H L378C, E. coli Tar lacking …. As to the kind of experiment: SPR. This is another data set of the same source.
For assay [7], the target named is T2, Tar4E L378C, E. coli aspartate …. As to the kind of experiment: SPR. This is another data set of the same source.
Assay [8] deals with T3, Tar4Q L378C, E. coli aspartate …. Nature of the assay: SPR. This is another data set of the same source.
The subject of assay [9] is Tar4E and Tar4Q with or without pentapeptide. As to the kind of experiment: CheBC binding to pentapeptide-bearing and pentapeptide-lacking Tar (biolayer interferometry). Set-up: species or system E. coli. The method, then:
as §1
E. coli CheB and Salmonella CheB D56C/C207S/C309S and D56C/S164A/C207S/C309S were purified as described previously ([11]). CheBC (amino acids [aa] 153 to 349) was purified using the procedure of West et al. ([40]), except that Bio-Gel P-60, was not used. CheB D56C/C207S/C309S and CheB D56C/S164A/C207S/C309S were modified to create a disulfide-linked phosphoryl group on D56C following the procedure described in reference but using a 10-fold molar excess of DTNB [Ellman’s reagent, 5,5′-disulfanediylbis(2-nitrobenzoic acid)] rather than 90-fold and a 50-fold molar excess Na3SPO3 rather than 1,000-fold. The extent of modification was 59% for the former and 60% for the latter determined by reversed phase chromatography essentially as described previously ([26]) and confirmed by Nano LC-Nanospray QTQF mass spectroscopy. Membrane scaffold protein MSP1D1(-) ([41]) was purified as described previously ([25]). Tar4E L378C, Tar4Q L378C, Tar4EΔpp-6H L378C, and Tar4QΔpp-6H L378C were purified, incorporated into Nanodiscs at approximately one receptor dimer per disc, and biotinylated at L378C as described previously ([23], [42]). […] These activities were confirmed for representative samples used in our analyses. […]
as §2

B1: methylesterase/deamidase CheB from E. coli, low-activity, unphosphorylated form (enzyme, UniProt P07330 1-349, looked up)
chain: MSKIRVLSVDDSALMRQIMTEIINSHSDMEMVATAPDPLVARDLIKKFNPDVLTLDVEMPRMDGLDFLEKLMRLRPMPVVMVSSLTGKGSEVTLRALELGAIDFVTKPQLGIREGMLAYNEMIAEKVRTAAKASLAAHKPLSAPTTLKAGPLLSSEKLIAIGASTGGTEAIRHVLQPLPLSSPALLITQHMPPGFTRSFADRLNKLCQIGVKEAEDGERVLPGHAYIAPGDRHMELSRSGANYQIKIHDGPAVNRHRPSVDVLFHSVAKQAGRNAVGVILTGMGNDGAAGMLAMRQAGAWTLAQNEASCVVFGMPREAINMGGVCEVVDLSQVSQQMLAKISAGQAIRI
notes: CheB methylesterase/deamidase of E. coli, unphosphorylated, from plasmid pCW/cheB; measured with 2 mM DTT in the buffer; also called low-activity CheB; unmodified CheB; source: E. coli K-12 RP3098 with pCW/cheB, purified
The Kd is the constant that tells how readily two partners part at equilibrium. As a reminder, the koff is a measure of how fast the partners let go of each other. High values mean a short-lived complex, low ones a long-lived complex. Turning to B1, the “effect of receptor signaling state on binding” value in assay [1] was “the signaling state of the chemoreceptor coiled-coil body did not influence the binding of its pentapeptide to low-activity CheB”. Also, the dissociation constant Kd at TarQEQE was ~150 µM. In addition, the off-rate (koff) in [2] worked out at 0.64 s⁻¹; in [3], 0.36 s⁻¹; in assay [4], 0.46 s⁻¹; in [5], 0.65 s⁻¹. The Ka came out at 1200 M⁻¹ in assay [6], 4400 M⁻¹ in assay [7] and 6300 M⁻¹ in [8].

B2: CheBC, catalytic domain of E. coli CheB lacking the regulatory domain and linker (domain or fragment)
chain: LSSEKLIAIGASTGGTEAIRHVLQPLPLSSPALLITQHMPPGFTRSFADRLNKLCQIGVKEAEDGERVLPGHAYIAPGDRHMELSRSGANYQIKIHDGPAVNRHRPSVDVLFHSVAKQAGRNAVGVILTGMGNDGAAGMLAMRQAGAWTLAQNEASCVVFGMPREAINMGGVCEVVDLSQVSQQMLAKISAGQAIRI
As to B2, the “binding to chemoreceptors versus CheB-P*” value in [9] (compared with activated phosphorylation mimic CheB-P*) is recorded as “bound much more weakly to chemoreceptors than the activated phosphorylation mimic CheB-P*”. In addition, the “preference for product form Tar4E versus substrate form Tar4Q” value in [9] (ratio of KD) is “approximately twofold”. For the same molecule, in assay [9] (with versus without NWETF), the “effect of presence or absence of pentapeptide on binding” value is “no significant difference in binding in the presence or absence of pentapeptide”. For the same molecule, the off-rate (koff) in assay [2] was found to be 0.44 s⁻¹; in assay [3], 0.48 s⁻¹; in [4] it was 0.48 s⁻¹; in assay [5], 0.58 s⁻¹. Further, the Ka in [6] turned out to be 1500 M⁻¹; in assay [7] it was 1700 M⁻¹; in assay [8], 700 M⁻¹.

The record behind these values is paper PMC8609364, “A Selective Tether Recruits Activated Response Regulator CheB to Its Chemoreceptor Substrate” (mBio, 2021).
